The source of these data is US20260234276A1.

The target in experiment [1] is human CCR8 (human) (UniProt P51685). Kind of experiment: flow cytometry on lymphocytes from ascitic ovarian cancer, 1 µg mAb.
Experiment [2] has the same target. The experiment is described as follows: flow cytometry on lymphocytes from ascitic ovarian cancer, 0.1 µg mAb. On the technique in general: Flow cytometry measures light scatter and fluorescence of single cells or particles in a stream.
The target is the same in experiment [3]. The experiment is described as follows: flow cytometry on lymphocytes from ascitic ovarian cancer, 0.5 µg mAb.
Experiment [4] has the same target. Kind of experiment: flow cytometry, hCCR8 transfected CHOK1 cells.

As to Isotype ctrl (antibody), the Positive cells with human CCR8 (human) [1] amounted to 5.06%; with human CCR8 (human) [2] it was 2.94%; in the experiment with human CCR8 (human) [3], 3.81%.

In the experiment with human CCR8 (human) [4], L263G8 (antibody) yielded a % positive cells of 86.5% and an MFI fold change to isotype ctrl of 19.8 fold. The substance further yielded a Positive cells with human CCR8 (human) [1] of 8.64%. The Positive cells with human CCR8 (human) [2] was found to be 9.5%.
